test: soluble on expression in E. coli; label from the status in PepcDB or PDB records

Sequence | soluble on expression in E. coli
GHSMHHHHHHLGNKLSISDLKDIKNKKVLVRVDFNVPIENGIIKDTNRITATLPTINHLKKEGASKIILISHCGRPDGLRNEKYTLKPVAETLKGLLGEEVLFLNDCVGKEVEDKINAAKENSVILLENLRFHIEEEGKGVDANGNKVKANKEDVEKFQNDLTKLADVFINDAFGTAHRAHSSMVGVKLNVKASGFLMKKELEYFSKALENPQRPLLAILGGAKVSDKIQLIKNLLDKVDRMIIGGGMAYTFKKVLNNMKIGTSLFDEAGSKIVGEIMEKAKAKNVQIFLPVDFKIADNFDNNANTKFVTDEEGIPDNWMGLDAGPKSIENYKDVILTSKTVIWNGPQGVFEMPNFAKGSIECLNLVVEVTKKGAITIVGGGDTASLVEQQNKKNEISHVSTGGGASLELLEGKELPGVLALSNK | soluble
MAHHHHHHMEKVITMREIITNTRKIKLHENFLEDCNLKDIFYNGLETVNCGYNDYVNMKTWLFVLSEKMFRTDYEELAYVACDALKVLLCNSKFLNVIIFKLLRKKLEKEILKIMGICCLTVASRMQQINESTCFKVILELSNLKDKLNEFNIRQIEMDVFVTLAHSGFCFEKIITPVNELNQIMKFLETYENFFDNNFNTFKSSSNLMLKIIYCMVPVFNMNIYNYSIVNYALRLFIQDNDKYEFIFEKLKQNYQDKEIIHISNFQNHMHNIINAFKNTSIFSAKDSILNNQLDVQLFEEINKKIEAYYEQKHKT | not soluble
MYSFPNSFRFGWSQAGFQSEMGTPGSEDPNTDWYKWVHDPENMAAGLVSGDLPENGPGYWGNYKTFHDNAQKMGLKIARLNVEWSRIFPNPLPRPQNFDESKQDVTEVEINENELKRLDEYANKDALNHYREIFKDLKSRGLYFILNMYHWPLPLWLHDPIRVRRGDFTGPSGWLSTRTVYEFARFSAYIAWKFDDLVDEYSTMNEPNVVGGLGYVGVKSGFPPGYLSFELSRRAMYNIIQAHARAYDGIKSVSKKPVGIIYANSSFQPLTDKDMEAVEMAENDNRWWFFDAIIRGEITRGNEKIVRDDLKGRLDWIGVNYYTRTVVKRTEKGYVSLGGYGHGCERNSVSLAGLPTSDFGWEFFPEGLYDVLTKYWNRYHLYMYVTENGIADDADYQRPYYLVSHVYQVHRAINSGADVRGYLHWSLADNYEWASGFSMRFGLLKVDYNTKRLYWRPSALVYREIATNGAITDEIEHLNSVPPVKPLRH | soluble
MPITWMRMRPWLEMQINSNQIPGLIWINKEEMIFQIPWKHAAKHGWDINKDACLFRSWAIHTGRYKAGEKEPDPKTWKANFRCAMNSLPDIEEVKDQSRNKGSSAVRVYRMLP | soluble
MLRTPNNRHKIDSILVLGTAQYDGVPSRQFAARLRHAAKLWRLHEIQHVYTVGGKLPGDRFTEAEVAREYLIKEGVDPDLIFVSAVGNDTVSSYEALDPEKLGRVLIVTDPNHSYRAVRIARRMGFDAKPSPTTYSPAKFPSIVYFLTLSHEWGGVVVQDVSRLLGERVADKVEASLRAIQGLLRPSRRARHEQLRRLKKLEHHHHHH | soluble
GGTKTAAEAAAPAVHPVSGLQIVPVTVTGTSGRHVFRSELARTSAEQAKGLMFRTELGDEEGMIFLRNPPDMATFWMRNTVIPLDIIFVGLDRRVMNIAANAVPYDETPLPAAGPTLAVLEINGGLAARLGIKPGDKVEW | soluble
MSLGEIWYGGTIYTMREENEKVDAIYVENGMIVDVGSKKELENRYAAVTLYDLEDKTMIPGLVDSHMHLIGHGERLLRLDLSNCTSYSEVLTLVRKRVEEAPKGSWIIGEGWNENNFTDTKDVHARDLDEISKEHPILLKRVCRHVTWVNSYILQEANITEKAEDPKGGKIGRDSSNMLTGLLYEQGQELIKHVQPEIDEAYLQSALQTAIKDCWQYGLVGGHTEDLNYYGGFRKTHNAFSHVIKEMPFKAHLLVHHEVAQERKEYENEHYIEFGAMKIFSDGSFGGRTALLSEPYEDAKETNGVAIFSREELAELVKKARDLHMPVAIHTIGDLSLEYVIDALELYPPAEGLRDRIIHCQLAREELIERMKNLQAIIDIQPVFVSSDFPSVIEKLGEHRLRYAYAWKTLLEAGLHCNGGSDAPIEQVNPFLGIYSAVTRRSFIDGVCYMPEERLTAYEAVSLFTTGSAYAIGKEEKRGQITKGYEADFTILDRNIFEIEAEEIKEVQAEMTVIDGKVVYRKDAEGHHHHHH | soluble
MISGHGDFPIALKESSGMIFGEENNLIAVPFFKGEGIQTLQEKYHQALKDIPEEHEVLFLVDIFGGTPYNAAASFIAEDQRMDMAAGVNLPILLEVLSLREHLALKDLLNNLKAMSQQSFQVCSEHLEKVKTANQD | not soluble
MSLRHVRERGVLVATLQRLAEQDPLTGIANRQGFQALLNARLAENEGRGVALGHLDLDNFRHVNDALGHQSGDRLILQVVARLKHQLEAGDQLARLGSDEFALLIDTRRDANRAEWIAERIVEALAEPYWIDGESLLLGCSLGIAHARAQSGADPLMWHAHIAMRQAKGSQGCTFHVFNERINRNARSLADLESELRRALRRDELELHYQPRLNLADGRIVGLEALVRWRHAERGLLPPSEFVPLAEQSGLIVPLGYWVISRALRDMQALCERGLEPLHMAVNLSFRQFQDSQLLATLSRLILEHGVDARWLEFELTETAVMRRNEVVRQTMDALGRLGVRFSLDDFGTGFSSFVHLNSLPITLLKVDRSFVAEMEMREENRKLVHAMINLAHNLNLEVVAEGVESEEQLTLLRGFGCDQVQGFLVSRPLPIGELMAYLLQAPGRQLEGEGHHHHHH | soluble
NSDSMILVTVNPKTKKTTMTSLERDTLTTLSGPKNNEMNGVEAKLNAAYAAGGAQMAIMTVQDLLNITIDNYVQINMQGLIDLVNAVGGITVTNEFDFPISIAENEPEYQATVAPGTHKINGEQALVYARMRYDDPEGDYGRQKRQREVIQKVLKKILA | not soluble
MKTQVAIIGAGPSGLLLGQLLHKAGIDNVILERQTPDYVLGRIRAGVLEQGMVDLLREAGVDRRMARDGLVHEGVEIAFAGQRRRIDLKRLSGGKTVTVYGQTEVTRDLMEAREASGATTVYQAAEVRLHDLQGERPYVTFERDGERLRLDCDYIAGCDGFHGISSQSIPAERLKVFERVYPFGWLGLLADTPPVSHELIYANHPRGFALCSQRSATRSRYYVQVPLTEKVEDWSDERFWTELKARLPAEVAEKLVTGPSLEKSIAPLRSFVVEPMQHGRLFLAGDAAHIVPPTGAKGLNLAASDVSTLYRLLLKAYREGRGELLERYSAICLRRIWKAERFSWWMTSVLHRFPDTDAFSQRIQQTELEYYLGSEAGLATIAENYVGLPYEEIE | soluble
MDDEEKDMADSFQNEVPAARVNIKLDLHTGNAKKKVELPLKLLAVGDYSNGKEQRPLSERDKVDINKNNFNSVMAEFSPAVNLTVEDTLNGNGNEQNIALEFKSLKDFEPEQVAKNIPQLRVLLAMRNLLRDLKSNLLDNATFRRELENILKDPTLSSELRDELAKIAPQENV | soluble
GKVNIIVPQYVRCPDICHYETLIMKSLMIKLFQENSLDDVVFVTVEVDPWRGSLEEADMYIKESTASLGFTPPWIWVGGNMEPLETLYKQLGLSVQLDSSTGLIVHTAGFYIVDRNGILLYYVKVEDEGWKNPGKVADVLEYVVNDALSK | not soluble
MAYSYTEKKRIRKDFSKLPDVMDVPYLLAIQLDSYREFLQAGATKEQFRDVGLHAAFKSVFPIISYSGNAALEYVGYRLGEPAFDVKECVLRGVTFAVPLRVKVRLIIFDRESSNKAIKDIKEQEVYMGEIPLMTENGTFIINGTERVIVSQLHRSPGVFFDHDRGKTHSSGKLLYSARIIPYRGSWLDFEFDPKDCVFVRIDRRRKLPASVLLRALGYSTEEILNAFYATNVFHIKGETLNLELVPQRLRGEVASIDIKDGSGKVIVEQGRRITARHINQLEKAGVSQLEVPFDYLIGRTIAKAIVHPATGEIIAECNTELTLDLLAKVAKAQVVRIETLYTNDIDCGPFISDTLKIDNTSNQLEALVEIYRMMRPGEPPTKEAAETLFGNLFFSAERYDLSAVGRMKFNRRIGRTEIEGPGVLSKEDIIDVLKTLVDIRNGKGIVDDIDHLGNRRVRCVGEMAENQFRVGLVRVERAVKERLSMAESEGLMPQDLINAKPVAAAIKEFFGSSQLSQFMDQNNPLSEITHKRRVSALGPGGLTRERAGFEVRDVHPTHYGRVCPIETPEGPNIGLINSLATYARTNKYGFLESPYRVVKDSLVTDEIVFLSAIEEADHVIAQASATLNEKGQLVDELVAVRHLNEFTVKAPEDVTLMDVSPKQVVSVAASLIPFLEHDDANRALMGSNMQRQAVPTLRADKPLVGTGMERNVARDSGVCVVARRGGVIDSVDASRVVVRVADDEVETGEAGVDIYNLTKYTRSNQNTCINQRPLVSKGDVVARGDILADGPSTDMGELALGQNMRVAFMPWNGFNFEDSICLSERVVQEDRFTTIHIQELTCVARDTKLGPEEITADIPNVGEAALNKLDEAGIVYVGAEVQAGDILVGKVTPKGETQLTPEEKLLRAIFGEKASDVKDTSLRVPTGTKGTVIDVQVFTRDGVERDSRALSIEKMQLDQIRKDLNEEFRIVEGATFERLRAALVGAKAEGGPALKKGTEITDDYLDGLERGQWFKLRMADDALNEQLEKAQAYISDRRQLLDDKFEDKKRKLQQGDDLAPGVLKIVKVYLAIKRRIQPGDKMAGRHGNKGVVSVIMPVEDMPHDANGTPVDIVLNPLGVPSRMNVGQILETHLGLAAKGLGEKINRMLEEQRKVAELRKFLHEIYNEIGGREENLDELGDNEILALAKNLRGGVPMATPVFDGAKEREIKAMLKLADLPESGQMRLFDGRTGNQFERPTTVGYMYMLKLNHLVDDKMHARSTGSYSLVTQQPLGGKAQFGGQRFGEMEVWALEAYGAAYTLQEMLTVKSDDVNGRTKMYKNIVDGDHRMEAGMPESFNVLIKEIRSLG | not soluble
MGSDKIHHHHHHMFVNRRAELKILHSAYESLKRGEKVNVAIIGPRRIGKTELLLKFKEEVNGVVPYLNLQRIGSLESFIFAYTRELLYEIAKVVGMSIERSDLLTWDDLLILSAKLDLEREVKAIRDGTLETLFEMQEAILEKTGQKAVFILDEFQEVVNFKGFLETMRAVTEKQRNIAYFISGSAVRMMEEILAPKNPFFGQFKRVYLRGLPKEDTIELAKTTLERAGIEATHSALELIYKLTQGHPFYVLALCRRLIEEGFEKVKSRDVYYAFLTELLSEKGDIYMHLEYLFNESLSRAYKGPIHKQILLILAQEEGLRLSEIARRLNKPSGEVSNYLKFLLRTDLILKQGERYYFTDKLMRFWLAKTYLGITELELRRERFLEELVRELEEKYLKAKKELGIAKEAMIRERMREIFDIDFKPYRRGDVEFDGVAFRDGVYVLEIKWRNRPATYKDVKDFIRKVKGEFGSATMFFFSRSGFTEKAKELCEKEGVKMLTPKDLGIS | not soluble
MSFELPALPFAKDALEPHISAETLDYHHGKHHNTYVVKLNGLIPGTEFEGKTLEEIIKTSTGGVFNNAAQIWNHTFYWNCLAPNAGGQPTGAVAAAIDAAFGSFEEFKAKFTDSAINNFGSSWTWLVKNADGSLAIVNTSNAATPLTDEGVTPLLTVDLWEHAYYIDFRNVRPDYMGAFWSLVNWSFVEENLAK | soluble
MGSDKIHHHHHHMAFSFDSRIRYSEVDSSCRLSLTGLTNYFQDCSVFHSQSHDVGIRFLADNHIAWVLSSWQICINRLPLLNEQVKISTWAYGMKAFYGYRNFTLEDAGGSTLAYANSVWVLVDTRTGRPVKVPQEFADTYGLEPQLEMECAKRKLHIPDDMEKKGEIVVPQFFIDSNHHMNNEKYVMLAQQLLPNDFEISELRVEYRKEAKLGDTVISYVKYTSKSVTVVLADTDKKPYSVVEFLSKPVPGK | not soluble
MNETTNEQEVLLLRRKLDLLLRTGKLLMESAADTNRIERNMKRVAAYLGIPEEKLHIDIRWTMLMVNVSDEKHSFSKFQKCEKHGINMEAISKISKLSWRAIEQDYSLDKYEEELEKIARQERNYTPYVVAICTGFACGGFCK | not soluble

— the DeepSol protein solubility set
